Molecular target: SERINC3(iHA), Serine incorporator 3 with an internal HA tag (UniProt Q13530)

Substance | SERINC3 internalization from the cell surface, relative to wild type NL4.3 Nef (flow cytometry, co-transfected CEM T cells) [%]
HIV-1 NL4.3 Nef S8R (from UniProt P03406 1-206) (natural protein) | 50
HIV-1 NL4.3 Nef I11G (from UniProt P03406 1-206) (natural protein) | 0

From paper PMC7515180
